The source of these data is article PMC2213614 (The Journal of Cell Biology, 2008).

This experiment addresses T1, GST-[change] (aa 1–320) (S. cerevisiae, UniProt P33332 1-320).
T1 sequence: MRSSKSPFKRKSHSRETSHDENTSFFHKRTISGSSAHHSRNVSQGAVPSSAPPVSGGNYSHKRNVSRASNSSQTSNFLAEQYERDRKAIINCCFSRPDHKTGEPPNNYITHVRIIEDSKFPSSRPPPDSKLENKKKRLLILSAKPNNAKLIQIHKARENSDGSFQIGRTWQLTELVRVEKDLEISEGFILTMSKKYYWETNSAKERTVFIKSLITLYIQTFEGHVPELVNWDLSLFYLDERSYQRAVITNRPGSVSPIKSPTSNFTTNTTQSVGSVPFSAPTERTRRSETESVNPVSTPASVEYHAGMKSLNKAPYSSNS
Kind of experiment: pull-down.

B1: Hisx6-Cdc42 (natural protein)
chain: not shown
With B1, the binding result is “binds”.
